Measured values reported in patent US20250115669A1, “FGFR1/KLB Targeting Agonistic Antigen-Binding Proteins and Conjugates Thereof with GLP-1R Agonistic Peptides” (SANOFI, priority 2020, published 2025).

T1: human beta-Klotho (Homo sapiens, UniProt Q86Z14)
T1 sequence (Q86Z14 1-1044): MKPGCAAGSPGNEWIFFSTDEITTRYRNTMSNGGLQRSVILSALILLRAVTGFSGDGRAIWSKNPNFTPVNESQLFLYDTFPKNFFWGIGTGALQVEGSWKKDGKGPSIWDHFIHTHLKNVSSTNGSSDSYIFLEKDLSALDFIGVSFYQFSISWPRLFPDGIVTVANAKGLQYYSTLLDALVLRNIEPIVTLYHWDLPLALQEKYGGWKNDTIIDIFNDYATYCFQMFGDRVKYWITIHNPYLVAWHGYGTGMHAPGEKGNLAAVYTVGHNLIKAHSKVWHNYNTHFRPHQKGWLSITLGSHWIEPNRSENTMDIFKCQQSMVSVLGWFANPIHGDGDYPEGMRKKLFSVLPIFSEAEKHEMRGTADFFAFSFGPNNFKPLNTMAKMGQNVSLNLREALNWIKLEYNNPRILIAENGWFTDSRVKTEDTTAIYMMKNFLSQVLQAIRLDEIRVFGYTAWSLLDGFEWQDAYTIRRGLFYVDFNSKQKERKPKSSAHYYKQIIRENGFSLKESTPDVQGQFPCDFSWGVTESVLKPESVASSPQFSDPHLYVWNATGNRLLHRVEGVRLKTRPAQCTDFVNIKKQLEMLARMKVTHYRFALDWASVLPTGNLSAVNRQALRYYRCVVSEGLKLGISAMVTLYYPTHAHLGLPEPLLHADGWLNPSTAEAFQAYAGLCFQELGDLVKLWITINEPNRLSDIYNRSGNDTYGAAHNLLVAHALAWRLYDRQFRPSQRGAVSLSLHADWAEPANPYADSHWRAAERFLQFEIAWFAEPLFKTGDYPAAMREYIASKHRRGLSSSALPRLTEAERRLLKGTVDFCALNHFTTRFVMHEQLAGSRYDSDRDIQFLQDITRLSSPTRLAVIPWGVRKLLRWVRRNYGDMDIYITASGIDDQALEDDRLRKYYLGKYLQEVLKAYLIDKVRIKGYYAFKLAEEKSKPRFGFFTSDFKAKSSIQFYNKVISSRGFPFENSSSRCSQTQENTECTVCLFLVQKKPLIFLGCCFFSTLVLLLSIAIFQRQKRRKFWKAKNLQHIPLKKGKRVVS


These molecules were tested against T1, human beta-Klotho (assay: SPR off-rate screening of antibody mutants (human beta-Klotho captured by anti-His antibody)). Conditions: mean, n=3.
Type: binding
Experimental: Screening of antibody mutants for binding to human beta-Klotho was determined in a different SPR assay set up. Human beta-Klotho was affinity captured by an anti-His antibody (from His capture kit, GE Healthcare) that was immobilized to a series S CM5 chip (GE Healthcare) by amine reactive coupling as described above. The antibody samples were used as analytes at 50 nmol/L concentration. Association time was 240 sec and dissociation time was 300 sec. Chip surfaces were regenerated using the regeneration solution supplied with the His capture kit. The off-rates (kd) were determined using single exponential fitting in the Biacore 8K Evaluation Software version 1.1.1.7442 (GE Healthcare).

Molecule | koff human KLB
Ab0319: IgG4 PE; 16H7 VL (D49Y, D50E, D91T, N93E); 16H7 VH (M34V, I83T, D109E) (antibody) VH: QVTLKESGPVLVKPTETLTLTCTVSGFSLNNARVGVSWIRQPPGKALEWLAHIFSNDEKSYSTSLKSRLTISKDTSKSQVVLTMTNMDPVDTATYYCARSVVTGGYYYEGMDVWGQGTTVTVSS light: SYVLTQPPSVSVAPGQTARITCGGNNIGSESVHWYQQKPGQAPVLVVYYESDRPSGIPERFSGSNSGNTATLTISRVEAGDEADYYCQVWTGESDHVVFGGGTKLTVLGQPKANPTVTLFPPSSEELQANKATLVCLISDFYPGAVTVAWKADGSPVKAGVETTKPSKQSNNKYAASSYLSLTPEQWKSHRSYSCQVTHEGSTVEKTVAPTECS | invalid fit
Ab0373: IgG4 PE; 16H7 VL (Y48del, D95E, W90H, S94C, H96C); 16H7 VH (M34V, H52W, I83T, D109E) (antibody) VH: QVTLKESGPVLVKPTETLTLTCTVSGFSLNNARVGVSWIRQPPGKALEWLAWIFSNDEKSYSTSLKSRLTISKDTSKSQVVLTMTNMDPVDTATYYCARSVVTGGYYYEGMDVWGQGTTVTVSS light: SYVLTQPPSVSVAPGQTARITCGGNNIGSESVHWYQQKPGQAPVLVVDDSDRPSGIPERFSGSNSGNTATLTISRVEAGDEADYYCQVHDGNCECVVFGGGTKLTVLGQPKANPTVTLFPPSSEELQANKATLVCLISDFYPGAVTVAWKADGSPVKAGVETTKPSKQSNNKYAASSYLSLTPEQWKSHRSYSCQVTHEGSTVEKTVAPTECS | no binding
Ab0372: IgG4 PE; 16H7 VL (Y48del, D95E, W90H, S1C, S94C); 16H7 VH (M34V, H52W, I83T, D109E) (antibody) VH: QVTLKESGPVLVKPTETLTLTCTVSGFSLNNARVGVSWIRQPPGKALEWLAWIFSNDEKSYSTSLKSRLTISKDTSKSQVVLTMTNMDPVDTATYYCARSVVTGGYYYEGMDVWGQGTTVTVSS light: CYVLTQPPSVSVAPGQTARITCGGNNIGSESVHWYQQKPGQAPVLVVDDSDRPSGIPERFSGSNSGNTATLTISRVEAGDEADYYCQVHDGNCEHVVFGGGTKLTVLGQPKANPTVTLFPPSSEELQANKATLVCLISDFYPGAVTVAWKADGSPVKAGVETTKPSKQSNNKYAASSYLSLTPEQWKSHRSYSCQVTHEGSTVEKTVAPTECS | no binding
Ab0376: IgG4 PE; 16H7 VL (Y48del, D95E, W90F, S94C, H96C); 16H7 VH (M34V, F54W, I83T, D109E) (antibody) VH: QVTLKESGPVLVKPTETLTLTCTVSGFSLNNARVGVSWIRQPPGKALEWLAHIWSNDEKSYSTSLKSRLTISKDTSKSQVVLTMTNMDPVDTATYYCARSVVTGGYYYEGMDVWGQGTTVTVSS light: SYVLTQPPSVSVAPGQTARITCGGNNIGSESVHWYQQKPGQAPVLVVDDSDRPSGIPERFSGSNSGNTATLTISRVEAGDEADYYCQVFDGNCECVVFGGGTKLTVLGQPKANPTVTLFPPSSEELQANKATLVCLISDFYPGAVTVAWKADGSPVKAGVETTKPSKQSNNKYAASSYLSLTPEQWKSHRSYSCQVTHEGSTVEKTVAPTECS | no binding
Ab0374: IgG4 PE; 16H7 VL (Y48del, D95E, W90F); 16H7 VH (M34V, F54W, I83T, D109E) (antibody) VH: QVTLKESGPVLVKPTETLTLTCTVSGFSLNNARVGVSWIRQPPGKALEWLAHIWSNDEKSYSTSLKSRLTISKDTSKSQVVLTMTNMDPVDTATYYCARSVVTGGYYYEGMDVWGQGTTVTVSS light: SYVLTQPPSVSVAPGQTARITCGGNNIGSESVHWYQQKPGQAPVLVVDDSDRPSGIPERFSGSNSGNTATLTISRVEAGDEADYYCQVFDGNSEHVVFGGGTKLTVLGQPKANPTVTLFPPSSEELQANKATLVCLISDFYPGAVTVAWKADGSPVKAGVETTKPSKQSNNKYAASSYLSLTPEQWKSHRSYSCQVTHEGSTVEKTVAPTECS | no binding
Ab0371: IgG4 PE; 16H7 VL (Y48del, D95E, W90H); 16H7 VH (M34V, H52W, I83T, D109E) (antibody) VH: QVTLKESGPVLVKPTETLTLTCTVSGFSLNNARVGVSWIRQPPGKALEWLAWIFSNDEKSYSTSLKSRLTISKDTSKSQVVLTMTNMDPVDTATYYCARSVVTGGYYYEGMDVWGQGTTVTVSS light: SYVLTQPPSVSVAPGQTARITCGGNNIGSESVHWYQQKPGQAPVLVVDDSDRPSGIPERFSGSNSGNTATLTISRVEAGDEADYYCQVHDGNSEHVVFGGGTKLTVLGQPKANPTVTLFPPSSEELQANKATLVCLISDFYPGAVTVAWKADGSPVKAGVETTKPSKQSNNKYAASSYLSLTPEQWKSHRSYSCQVTHEGSTVEKTVAPTECS | no binding
Ab0320: IgG4 PE; 16H7 VL (N25S, D49Y, D50E, D91T, N93E); 16H7 VH (M34V, I83T, D109E) (antibody) VH: QVTLKESGPVLVKPTETLTLTCTVSGFSLNNARVGVSWIRQPPGKALEWLAHIFSNDEKSYSTSLKSRLTISKDTSKSQVVLTMTNMDPVDTATYYCARSVVTGGYYYEGMDVWGQGTTVTVSS light: SYVLTQPPSVSVAPGQTARITCGGSNIGSESVHWYQQKPGQAPVLVVYYESDRPSGIPERFSGSNSGNTATLTISRVEAGDEADYYCQVWTGESDHVVFGGGTKLTVLGQPKANPTVTLFPPSSEELQANKATLVCLISDFYPGAVTVAWKADGSPVKAGVETTKPSKQSNNKYAASSYLSLTPEQWKSHRSYSCQVTHEGSTVEKTVAPTECS | invalid fit

Results, then the molecule that gave them:

koff human KLB | Molecule
no binding | Ab0378: IgG4 PE; 16H7 VL (Y48del, D95V, W90F); 16H7 VH (M34V, H52S, F54W, I83T, D109E) (antibody) VH: QVTLKESGPVLVKPTETLTLTCTVSGFSLNNARVGVSWIRQPPGKALEWLASIWSNDEKSYSTSLKSRLTISKDTSKSQVVLTMTNMDPVDTATYYCARSVVTGGYYYEGMDVWGQGTTVTVSS light: SYVLTQPPSVSVAPGQTARITCGGNNIGSESVHWYQQKPGQAPVLVVDDSDRPSGIPERFSGSNSGNTATLTISRVEAGDEADYYCQVFDGNSVHVVFGGGTKLTVLGQPKANPTVTLFPPSSEELQANKATLVCLISDFYPGAVTVAWKADGSPVKAGVETTKPSKQSNNKYAASSYLSLTPEQWKSHRSYSCQVTHEGSTVEKTVAPTECS
no binding | Ab0377: IgG4 PE; 16H7 VL (Y48del, D95V, W90F); 16H7 VH (M34V, F54W, I83T, D109E) (antibody) VH: QVTLKESGPVLVKPTETLTLTCTVSGFSLNNARVGVSWIRQPPGKALEWLAHIWSNDEKSYSTSLKSRLTISKDTSKSQVVLTMTNMDPVDTATYYCARSVVTGGYYYEGMDVWGQGTTVTVSS light: SYVLTQPPSVSVAPGQTARITCGGNNIGSESVHWYQQKPGQAPVLVVDDSDRPSGIPERFSGSNSGNTATLTISRVEAGDEADYYCQVFDGNSVHVVFGGGTKLTVLGQPKANPTVTLFPPSSEELQANKATLVCLISDFYPGAVTVAWKADGSPVKAGVETTKPSKQSNNKYAASSYLSLTPEQWKSHRSYSCQVTHEGSTVEKTVAPTECS
no binding | Ab0379: IgG4 PE; 16H7 VL (Y48del, D95V, W90F, S1C, S94C); 16H7 VH (M34V, F54W, I83T, D109E) (antibody) VH: QVTLKESGPVLVKPTETLTLTCTVSGFSLNNARVGVSWIRQPPGKALEWLAHIWSNDEKSYSTSLKSRLTISKDTSKSQVVLTMTNMDPVDTATYYCARSVVTGGYYYEGMDVWGQGTTVTVSS light: CYVLTQPPSVSVAPGQTARITCGGNNIGSESVHWYQQKPGQAPVLVVDDSDRPSGIPERFSGSNSGNTATLTISRVEAGDEADYYCQVFDGNCVHVVFGGGTKLTVLGQPKANPTVTLFPPSSEELQANKATLVCLISDFYPGAVTVAWKADGSPVKAGVETTKPSKQSNNKYAASSYLSLTPEQWKSHRSYSCQVTHEGSTVEKTVAPTECS
